Data reported in patent CN116199779A (BEIJING DONGFANG BIOTECH CO LTD; BEIJING JINGYI TAIXIANG …, dated 2023).
Like-named read-outs stand apart in the source and are kept apart here. Values belong to the binder of their own block, whether it stands above or below them.

Experiments:
THP-1细胞表面的LILRB4 [1] = target: T1, THP-1细胞表面的LILRB4 (human, UniProt Q8NHJ6 22-448); assay: cell-based or functional assay
LILRB5 [2] = target: T2, LILRB5 (UniProt O75023 24-458, limits assumed); assay: ELISA, coated protein 100ng/well
T2 construct: construct not described
T2 sequence (O75023 24-458 limits assumed): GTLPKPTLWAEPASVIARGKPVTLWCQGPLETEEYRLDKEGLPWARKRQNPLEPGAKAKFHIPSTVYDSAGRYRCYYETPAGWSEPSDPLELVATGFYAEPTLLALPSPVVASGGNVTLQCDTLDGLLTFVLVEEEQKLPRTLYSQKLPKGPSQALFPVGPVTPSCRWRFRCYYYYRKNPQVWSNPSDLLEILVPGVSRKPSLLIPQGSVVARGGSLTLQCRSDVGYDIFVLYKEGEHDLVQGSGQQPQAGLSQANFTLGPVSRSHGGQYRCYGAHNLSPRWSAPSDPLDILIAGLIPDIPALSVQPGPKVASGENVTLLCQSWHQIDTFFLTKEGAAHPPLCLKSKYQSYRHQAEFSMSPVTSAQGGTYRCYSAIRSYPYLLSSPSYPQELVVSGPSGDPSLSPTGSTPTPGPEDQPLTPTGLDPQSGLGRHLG

LILRA5 [3] = target: T3, LILRA5 (UniProt A6NI73 42-268, limits assumed); assay: ELISA, coated protein 100ng/well
T3 construct: construct not described
T3 sequence (A6NI73 42-268 limits assumed): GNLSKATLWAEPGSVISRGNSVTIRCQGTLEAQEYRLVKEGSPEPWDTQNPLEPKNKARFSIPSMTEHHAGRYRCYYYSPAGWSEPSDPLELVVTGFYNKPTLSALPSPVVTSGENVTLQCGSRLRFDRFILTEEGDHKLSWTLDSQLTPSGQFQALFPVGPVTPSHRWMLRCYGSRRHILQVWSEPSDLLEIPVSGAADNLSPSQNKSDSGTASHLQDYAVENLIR

LILRA3 [4] = target: T4, LILRA3 (UniProt Q8N6C8 24-439); assay: ELISA, coated protein 100ng/well
T4 construct: construct not described
T4 sequence (Q8N6C8 24-439 limits assumed): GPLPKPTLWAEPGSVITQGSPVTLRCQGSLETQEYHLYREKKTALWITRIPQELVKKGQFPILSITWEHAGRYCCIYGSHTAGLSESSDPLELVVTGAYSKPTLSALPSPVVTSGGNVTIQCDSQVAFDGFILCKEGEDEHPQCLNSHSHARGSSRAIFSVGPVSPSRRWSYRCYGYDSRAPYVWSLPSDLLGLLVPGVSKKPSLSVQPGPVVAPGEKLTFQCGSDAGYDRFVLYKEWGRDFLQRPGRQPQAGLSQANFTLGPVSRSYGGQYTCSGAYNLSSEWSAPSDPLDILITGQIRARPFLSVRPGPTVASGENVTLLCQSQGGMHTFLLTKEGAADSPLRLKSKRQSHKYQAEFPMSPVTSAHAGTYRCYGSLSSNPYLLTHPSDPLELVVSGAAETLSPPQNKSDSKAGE

LILRA2 [5] = target: T5, LILRA2 (UniProt Q8N149 24-449, limits assumed); assay: ELISA, coated protein 100ng/well
T5 construct: construct not described

LILRB1 [6] = target: T6, LILRB1 (UniProt Q8NHL6 24-461, limits assumed); assay: ELISA, coated protein 100ng/well
T6 construct: construct not described
T6 sequence (Q8NHL6 24-461 limits assumed): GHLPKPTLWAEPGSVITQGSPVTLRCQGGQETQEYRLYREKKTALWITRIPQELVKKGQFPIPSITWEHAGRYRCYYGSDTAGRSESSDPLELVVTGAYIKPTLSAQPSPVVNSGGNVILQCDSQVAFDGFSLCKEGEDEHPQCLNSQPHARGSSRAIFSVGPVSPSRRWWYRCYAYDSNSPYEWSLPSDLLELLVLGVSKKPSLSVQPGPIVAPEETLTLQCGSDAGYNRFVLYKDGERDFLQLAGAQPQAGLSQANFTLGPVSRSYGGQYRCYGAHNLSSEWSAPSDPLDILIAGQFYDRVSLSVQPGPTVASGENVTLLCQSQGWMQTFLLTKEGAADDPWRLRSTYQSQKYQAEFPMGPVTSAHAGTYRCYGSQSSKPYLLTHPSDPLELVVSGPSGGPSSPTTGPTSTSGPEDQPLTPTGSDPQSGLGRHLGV

LILRB3 [7] = target: T7, LILRB3 (UniProt O75022 24-443, limits assumed); assay: ELISA, coated protein 100ng/well
T7 construct: construct not described
T7 sequence (O75022 24-443 limits assumed): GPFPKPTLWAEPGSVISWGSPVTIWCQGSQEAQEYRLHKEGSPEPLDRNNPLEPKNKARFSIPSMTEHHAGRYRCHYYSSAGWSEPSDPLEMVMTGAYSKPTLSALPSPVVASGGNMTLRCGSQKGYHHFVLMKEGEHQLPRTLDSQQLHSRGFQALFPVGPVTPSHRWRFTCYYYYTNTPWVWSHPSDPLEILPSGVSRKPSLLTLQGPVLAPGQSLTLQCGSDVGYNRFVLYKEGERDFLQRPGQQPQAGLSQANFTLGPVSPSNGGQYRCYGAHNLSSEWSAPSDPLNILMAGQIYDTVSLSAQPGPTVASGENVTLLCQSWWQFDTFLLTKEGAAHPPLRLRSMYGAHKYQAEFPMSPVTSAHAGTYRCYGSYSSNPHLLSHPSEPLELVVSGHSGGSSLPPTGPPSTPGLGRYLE

LILRA1 [8] = target: T8, LILRA1 (UniProt O75019 17-461, limits assumed); assay: ELISA, coated protein 100ng/well
T8 construct: construct not described
T8 sequence (O75019 17-461 limits assumed): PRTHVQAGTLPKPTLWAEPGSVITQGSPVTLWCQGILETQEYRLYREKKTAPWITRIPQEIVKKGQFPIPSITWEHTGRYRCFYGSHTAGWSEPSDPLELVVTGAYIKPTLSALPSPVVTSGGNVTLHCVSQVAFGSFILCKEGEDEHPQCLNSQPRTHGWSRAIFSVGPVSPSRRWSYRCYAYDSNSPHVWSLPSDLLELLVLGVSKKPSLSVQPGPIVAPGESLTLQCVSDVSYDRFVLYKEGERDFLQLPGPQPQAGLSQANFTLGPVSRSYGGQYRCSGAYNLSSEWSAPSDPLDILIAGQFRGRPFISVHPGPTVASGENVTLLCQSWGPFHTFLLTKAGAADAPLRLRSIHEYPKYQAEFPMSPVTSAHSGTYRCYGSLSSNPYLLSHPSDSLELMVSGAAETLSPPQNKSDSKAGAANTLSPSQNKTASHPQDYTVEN

LILRA4 [9] = target: T9, LILRA4 (UniProt P59901 24-446, limits assumed); assay: ELISA, coated protein 100ng/well
T9 construct: construct not described
T9 sequence (P59901 24-446 limits assumed): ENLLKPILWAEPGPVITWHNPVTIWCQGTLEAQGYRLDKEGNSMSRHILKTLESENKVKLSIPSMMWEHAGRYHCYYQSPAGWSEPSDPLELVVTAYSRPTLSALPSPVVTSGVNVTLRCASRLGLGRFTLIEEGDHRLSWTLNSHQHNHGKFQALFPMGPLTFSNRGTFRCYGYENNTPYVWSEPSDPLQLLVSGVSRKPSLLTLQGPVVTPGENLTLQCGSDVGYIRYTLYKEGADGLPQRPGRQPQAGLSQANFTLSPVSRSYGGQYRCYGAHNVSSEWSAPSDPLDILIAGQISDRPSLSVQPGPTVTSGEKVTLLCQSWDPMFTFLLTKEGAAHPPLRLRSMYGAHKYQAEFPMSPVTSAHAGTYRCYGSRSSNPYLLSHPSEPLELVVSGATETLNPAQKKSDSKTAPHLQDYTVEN

LILRB2 [10] = target: T10, LILRB2 (UniProt Q8N423 22-460, limits assumed); assay: ELISA, coated protein 100ng/well
T10 construct: construct not described
T10 sequence (Q8N423 22-460 limits assumed): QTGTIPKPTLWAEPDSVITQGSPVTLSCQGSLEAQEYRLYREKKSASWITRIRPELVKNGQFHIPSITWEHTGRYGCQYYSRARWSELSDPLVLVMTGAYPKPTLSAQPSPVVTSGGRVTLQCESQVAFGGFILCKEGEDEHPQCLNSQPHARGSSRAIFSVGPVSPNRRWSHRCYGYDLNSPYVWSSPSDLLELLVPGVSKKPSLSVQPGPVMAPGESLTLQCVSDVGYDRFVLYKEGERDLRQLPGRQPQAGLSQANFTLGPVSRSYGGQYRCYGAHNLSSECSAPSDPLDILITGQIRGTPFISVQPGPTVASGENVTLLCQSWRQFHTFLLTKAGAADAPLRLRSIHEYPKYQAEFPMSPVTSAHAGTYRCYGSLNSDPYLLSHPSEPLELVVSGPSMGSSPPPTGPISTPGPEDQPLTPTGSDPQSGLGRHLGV

LILRA6 [11] = target: T11, LILRA6 (UniProt Q6PI73 24-447, limits assumed); assay: ELISA, coated protein 100ng/well
T11 construct: construct not described
T11 sequence (Q6PI73 24-447 limits assumed): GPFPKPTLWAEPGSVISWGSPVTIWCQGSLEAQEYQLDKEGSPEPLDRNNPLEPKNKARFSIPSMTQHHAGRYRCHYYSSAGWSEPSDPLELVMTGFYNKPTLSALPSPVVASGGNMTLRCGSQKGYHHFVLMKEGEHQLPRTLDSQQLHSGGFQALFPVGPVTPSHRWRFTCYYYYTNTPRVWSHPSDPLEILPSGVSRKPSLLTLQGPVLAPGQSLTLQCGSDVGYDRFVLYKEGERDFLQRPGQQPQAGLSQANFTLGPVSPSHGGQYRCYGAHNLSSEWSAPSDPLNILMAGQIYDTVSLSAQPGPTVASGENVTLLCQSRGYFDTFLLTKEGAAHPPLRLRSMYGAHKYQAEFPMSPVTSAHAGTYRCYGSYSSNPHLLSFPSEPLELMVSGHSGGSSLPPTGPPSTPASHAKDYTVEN

LILRB4抗原 (人LILRB4蛋白胞外段) [12] = target: T12, LILRB4抗原 (人LILRB4蛋白胞外段) (human, UniProt Q8NHJ6 22-259); assay: ELISA, coated LILRB4, anti-mouse IgG-HRP
T12 construct: extracellular domain; also called 白细胞免疫球蛋白样受体亚家族B成员4

THP-1细胞表面的LILRB4 [13] = target: T1, THP-1细胞表面的LILRB4; assay: flow cytometry on THP-1 cells, FITC anti-mouse IgG
LILRB5 [14] = target: T2, LILRB5; assay: ELISA, coated protein 100ng/well, antibody 50μg/mL
LILRA5 [15] = target: T3, LILRA5; assay: ELISA, coated protein 100ng/well, antibody 50μg/mL
LILRA3 [16] = target: T4, LILRA3; assay: ELISA, coated protein 100ng/well, antibody 50μg/mL
LILRA2 [17] = target: T5, LILRA2; assay: ELISA, coated protein 100ng/well, antibody 50μg/mL
LILRB1 [18] = target: T6, LILRB1; assay: ELISA, coated protein 100ng/well, antibody 50μg/mL
LILRB3 [19] = target: T7, LILRB3; assay: ELISA, coated protein 100ng/well, antibody 50μg/mL
LILRA1 [20] = target: T8, LILRA1; assay: ELISA, coated protein 100ng/well, antibody 50μg/mL
LILRB4抗原 (人LILRB4蛋白胞外段) [21] = target: T12, LILRB4抗原 (人LILRB4蛋白胞外段); assay: ELISA, coated protein 100ng/well, antibody 50μg/mL
LILRA4 [22] = target: T9, LILRA4; assay: ELISA, coated protein 100ng/well, antibody 50μg/mL
LILRB2 [23] = target: T10, LILRB2; assay: ELISA, coated protein 100ng/well, antibody 50μg/mL
LILRA6 [24] = target: T11, LILRA6; assay: ELISA, coated protein 100ng/well, antibody 50μg/mL
THP-1细胞表面的LILRB4 [25] = target: T1, THP-1细胞表面的LILRB4; assay: flow cytometry competition on THP-1 cells; competitor FITC-labelled ApoE
THP-1细胞表面的LILRB4 [26] = target: T1, THP-1细胞表面的LILRB4; assay: flow cytometry on THP-1 cells
LILRB4抗原 (人LILRB4蛋白胞外段) [27] = target: T12, LILRB4抗原 (人LILRB4蛋白胞外段); assay: ELISA, coated LILRB4, anti-human IgG-HRP
THP-1细胞表面的LILRB4 [28] = target: T1, THP-1细胞表面的LILRB4; assay: cell-based or functional assay; remark: listed apart in the source
THP-1细胞表面的LILRB4 [29] = target: T1, THP-1细胞表面的LILRB4; assay: flow cytometry competition on THP-1 cells; competitor FITC-labelled ApoE; remark: listed apart in the source
THP-1细胞表面的LILRB4 [30] = target: T1, THP-1细胞表面的LILRB4; assay: cell-based or functional assay; remark: listed apart in the source

IC50 of inhibition of ARG1 secretion by THP-1 cells with ApoE (arginase activity) (THP-1细胞表面的LILRB4 [1]): 23.9 µg/mL
binding result (LILRB5 [2]): no binding (tested: 50μg/mL)
binding result (LILRA5 [3]): no binding (tested: 50μg/mL)
binding result (LILRA3 [4]): no binding (tested: 50μg/mL)
binding result (LILRA2 [5]): no binding (tested: 50μg/mL)
binding result (LILRB1 [6]): no binding (tested: 50μg/mL)
binding result (LILRB3 [7]): no binding (tested: 50μg/mL)
binding result (LILRA1 [8]): no binding (tested: 50μg/mL)
binding result (LILRA4 [9]): no binding (tested: 50μg/mL)
binding result (LILRB2 [10]): no binding (tested: 50μg/mL)
binding result (LILRA6 [11]): no binding (tested: 50μg/mL)
EC50 (LILRB4抗原 (人LILRB4蛋白胞外段) [12]): 0.00835 µg/mL
EC50 (THP-1细胞表面的LILRB4 [13]): 0.306 µg/mL
OD 450nm/630nm (LILRB5 [14]): 0.197 OD
OD 450nm/630nm (LILRA5 [15]): 0.077 OD
OD 450nm/630nm (LILRA3 [16]): 0.068 OD
OD 450nm/630nm (LILRA2 [17]): 0.083 OD
OD 450nm/630nm (LILRB1 [18]): 0.064 OD
OD 450nm/630nm (LILRB3 [19]): 0.072 OD
OD 450nm/630nm (LILRA1 [20]): 0.12 OD
OD 450nm/630nm (LILRB4抗原 (人LILRB4蛋白胞外段) [21]): 2.97 OD
OD 450nm/630nm (LILRA4 [22]): 0.092 OD
OD 450nm/630nm (LILRB2 [23]): 0.036 OD
OD 450nm/630nm (LILRA6 [24]): 0.054 OD
IC50 (THP-1细胞表面的LILRB4 [25]): 0.204 µg/mL
B1: MA-Ⅰ 鼠源抗LILRB4单克隆抗体 (mouse IgG1, Ck) (antibody)
heavy: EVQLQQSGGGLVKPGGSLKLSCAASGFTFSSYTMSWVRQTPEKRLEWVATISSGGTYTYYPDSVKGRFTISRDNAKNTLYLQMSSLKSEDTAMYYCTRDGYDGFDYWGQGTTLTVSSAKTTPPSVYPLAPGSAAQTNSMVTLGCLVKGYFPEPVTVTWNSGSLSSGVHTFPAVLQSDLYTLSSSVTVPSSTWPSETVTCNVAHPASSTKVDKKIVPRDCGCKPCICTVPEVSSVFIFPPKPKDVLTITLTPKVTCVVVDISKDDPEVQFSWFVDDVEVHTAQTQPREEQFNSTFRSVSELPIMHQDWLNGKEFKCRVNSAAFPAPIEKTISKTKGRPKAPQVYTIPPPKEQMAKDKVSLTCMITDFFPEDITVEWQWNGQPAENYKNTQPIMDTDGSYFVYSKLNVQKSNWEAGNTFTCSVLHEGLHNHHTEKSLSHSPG
light: DIVMTQTTLSLPVSPGDQASISCRSSQSLAHSNGNTYLHWYLQKPGQSPKLLIYKVSNRFSGVPDRFSGSGSGTDFTLKISRVEAEDLGVYFCSQSTLVPTFGGGTKLEIKADAAPTVSIFPPSSEQLTSGGASVVCFLNNFYPKDINVKWKIDGSERQNGVLNSWTDQDSKDSTYSMSSTLTLTKDEYERHNSYTCEATHKTSTSPIVKSFNRNEC
notes: also called MA-I; 鼠源抗体MA-Ⅰ

EC50 (THP-1细胞表面的LILRB4 [26]): 0.2 µg/mL
EC50 (LILRB4抗原 (人LILRB4蛋白胞外段) [27]): 0.0178 µg/mL
B2: 嵌合抗体CA-Ⅰ (MA-Ⅰ variable regions, human IgG1, Ck) (antibody)
heavy: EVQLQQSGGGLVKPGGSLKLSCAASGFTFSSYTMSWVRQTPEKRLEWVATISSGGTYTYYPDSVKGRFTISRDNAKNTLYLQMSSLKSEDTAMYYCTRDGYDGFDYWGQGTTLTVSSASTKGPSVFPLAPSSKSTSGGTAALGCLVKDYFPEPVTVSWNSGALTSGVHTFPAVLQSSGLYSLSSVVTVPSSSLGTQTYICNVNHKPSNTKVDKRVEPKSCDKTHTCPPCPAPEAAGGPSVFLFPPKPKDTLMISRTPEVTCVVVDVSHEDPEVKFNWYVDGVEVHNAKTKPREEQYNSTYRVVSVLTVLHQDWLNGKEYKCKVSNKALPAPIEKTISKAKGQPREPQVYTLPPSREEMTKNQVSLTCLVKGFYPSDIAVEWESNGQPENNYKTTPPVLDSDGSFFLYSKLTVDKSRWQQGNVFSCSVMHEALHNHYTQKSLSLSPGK
light: DIVMTQTTLSLPVSPGDQASISCRSSQSLAHSNGNTYLHWYLQKPGQSPKLLIYKVSNRFSGVPDRFSGSGSGTDFTLKISRVEAEDLGVYFCSQSTLVPTFGGGTKLEIKRTVAAPSVFIFPPSDEQLKSGTASVVCLLNNFYPREAKVQWKVDNALQSGNSQESVTEQDSKDSTYSLSSTLTLSKADYEKHKVYACEVTHQGLSSPVTKSFNRGEC
notes: also called CA-I

EC50 (LILRB4抗原 (人LILRB4蛋白胞外段) [27]): 0.343 µg/mL
B3: 人源化抗体HB-Ⅰ (human IgG1, Ck) (antibody, V domains shown)
VH: QVQLVQSGAEVKKPGASVKVSCKASGYTFTNYWMHWVRQAPGQGLEWIGEINPSNGRTNYNEKFKTRATLTVDTSTSTAYMELSSLRSEDTAVYYCARWGQLGLREGYYAVDYWGQGTLVTVSS
VL: DIQMTQSPSSLSASVGDRVTITCRASQDISNYLNWYQQKPGKAPKLLIYYTSRLHSGVPSRFSGSGSGTDYTFTISSLQPEDIATYYCQQGNTLPPTFGGGTKVEIKR
notes: also called HB-I

EC50 (THP-1细胞表面的LILRB4 [26]): 0.179 µg/mL
IC50 of inhibition of ARG1 secretion by THP-1 cells with ApoE (arginase activity) (THP-1细胞表面的LILRB4 [28]): 250 µg/mL
EC50 (LILRB4抗原 (人LILRB4蛋白胞外段) [27]): 0.0154 µg/mL
IC50 (THP-1细胞表面的LILRB4 [29]): 2.75 µg/mL
IC50, NF-κB luciferase reporter in THP-1-NF-κB-Luc cells stimulated with ApoE (THP-1细胞表面的LILRB4 [30]): 2.68 µg/mL
B4: 人源化抗体HA-Ⅱ (human IgG1, Ck) (antibody, V domains shown)
VH: EVQLVESGGGLVKPGGSLRLSCAASGFTFSSYTMSWVRQAPGKGLEWVATISSGGTYTYYPDSVKGRFTISRDNAKNSLYLQMNSLRAEDTAVYYCARDGYDGFDYWGQGTTVTVSS
VL: DIVMTQTPLSLSVTPGQPASISCRSSQSLAHSNGNTYLHWYLQKPGQSPQLLIYKVSNRFSGVPDRFSGSGSGTDFTLKISRVEAEDVGVYFCSQSTHVPTFGGGTKVEIKR
notes: also called HA-II
